Molecular target: importin-α (PBMCs) (human (endogenous in PBMCs)) (UniProt P52292)
Test: co-IP; PBMCs from seven steroid-naive asthma patients after inhaled FP (100 or 500 µg via a spacer) or placebo in vivo, blood taken at 1 and 2 h; densitometry of blots

GATA-3–importin-α association (densitometry, median), 2 h after inhaled FP 500 µg: 879
GATA-3–importin-α association (densitometry, median), reference before the decrease: 13500
Substance: phospho-GATA-3 (PBMCs) (from UniProt P23771 1-443) (natural protein)

From paper PMC2674207
